Starred links: 1 amine or outer side, 2 acyl side, 3 side chain; linkers in the order of their positions; H or OH if unused. Positions of bridges follow the written chain, without caps; N, C: chain ends. Non-standard residues stand in square brackets, D forms with d. Primed or numbered codes have the meaning given here. PyrS2″ = (S)-3-amino-1-((pent-4-en-1-yloxy)carbonyl)pyrrolidine-3-carboxylic acid (stapling residue), C=CCCCOC(=O)N1CC[C@@](N[*:1])(C(=O)[*:2])C1; B5(4) = 2,2-bis(4-pentenyl)glycine = 2-amino-2-(pent-4-en-1-yl)hept-6-enoic acid (stitching residue), C=CCCCC(CCCC=C)(N[*:1])C(=O)[*:2]; B5(21) = 2-amino-2-(pent-4-en-1-yl)hept-6-enoic acid, bis(4-pentenyl)glycine (stitching residue), C=CCCCC(CCCC=C)(N[*:1])C(=O)[*:2]; TfeGA = (S)-2-amino-3-((carboxymethyl)(2,2,2-trifluoroethyl)amino)propanoic acid, O=C([C@H](CN(CC(=O)[*:3])CC(F)(F)F)N[*:1])[*:2]; SeN = (S)-5-(((allyloxy)carbonyl)(methyl)amino)-2-amino-2-methylpentanoic acid, C=CCOC(=O)N(C)CCC[C@](C)(N[*:1])C(=O)[*:2]; B5(3) = 2,2-bis(4-pentenyl)glycine (stitching residue), C=CCCCC(CCCC=C)(N[*:1])C(=O)[*:2]; Phe(2-Cl) = N[C@@H](Cc1ccccc1Cl)C(=O)O; Bta = N[C@@H](Cc1csc2ccccc12)C(=O)O; αAllylPro = C=CC[C@@]1(C(=O)O)CCCN1; tBuAla = CC(C)(C)C[C@H](N)C(=O)O; S8 = C=CCCCCCC[C@](C)(N)C(=O)O; hSer = N[C@@H](CCO)C(=O)O
Columns and labels:
[1] = target: T1, full-length beta-Catenin (Uniprot ID P35222) (Homo sapiens (Human), UniProt P35222 1-781); assay: fluorescence polarization competition; full-length beta-catenin, 5FAM-TCF4(10-53) probe as competitor
T1 construct: The assay protocol says 'full-length'; also called bCat; B-Catenin
T1 sequence: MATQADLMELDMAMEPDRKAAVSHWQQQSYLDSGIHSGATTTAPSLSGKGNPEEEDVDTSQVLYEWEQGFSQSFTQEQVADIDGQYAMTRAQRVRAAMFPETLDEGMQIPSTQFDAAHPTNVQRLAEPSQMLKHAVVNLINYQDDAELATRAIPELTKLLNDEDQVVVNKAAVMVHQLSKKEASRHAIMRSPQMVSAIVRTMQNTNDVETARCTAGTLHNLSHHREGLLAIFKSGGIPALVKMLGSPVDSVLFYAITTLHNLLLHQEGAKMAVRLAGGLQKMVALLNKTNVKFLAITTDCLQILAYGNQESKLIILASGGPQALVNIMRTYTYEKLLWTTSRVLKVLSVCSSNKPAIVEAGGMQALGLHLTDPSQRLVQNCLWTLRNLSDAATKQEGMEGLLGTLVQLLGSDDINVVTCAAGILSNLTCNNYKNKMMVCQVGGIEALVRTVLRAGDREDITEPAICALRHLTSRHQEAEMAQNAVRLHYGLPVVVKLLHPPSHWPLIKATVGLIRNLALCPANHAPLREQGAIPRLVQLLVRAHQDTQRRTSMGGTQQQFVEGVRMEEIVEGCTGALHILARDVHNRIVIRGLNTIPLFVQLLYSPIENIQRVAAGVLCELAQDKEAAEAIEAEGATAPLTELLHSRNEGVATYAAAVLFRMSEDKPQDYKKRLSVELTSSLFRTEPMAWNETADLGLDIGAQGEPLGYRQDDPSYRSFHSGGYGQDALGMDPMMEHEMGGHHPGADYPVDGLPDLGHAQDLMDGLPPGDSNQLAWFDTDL
Procedure: The plate was incubated protected from light for 60 minutes at 20° C. prior to read. Reads were performed on a CLARIOstar plate reader (BMG Labtech) in duplicate, and data were fitted to a 1:1 binding model with hill slope using an in-house script. All provided concentrations are final concentrations.

B-cat-Halo [2] = target: T2, B-cat-Halo (UniProt P35222 1-781); assay: cell-based or functional assay
T2 sequence (looked up): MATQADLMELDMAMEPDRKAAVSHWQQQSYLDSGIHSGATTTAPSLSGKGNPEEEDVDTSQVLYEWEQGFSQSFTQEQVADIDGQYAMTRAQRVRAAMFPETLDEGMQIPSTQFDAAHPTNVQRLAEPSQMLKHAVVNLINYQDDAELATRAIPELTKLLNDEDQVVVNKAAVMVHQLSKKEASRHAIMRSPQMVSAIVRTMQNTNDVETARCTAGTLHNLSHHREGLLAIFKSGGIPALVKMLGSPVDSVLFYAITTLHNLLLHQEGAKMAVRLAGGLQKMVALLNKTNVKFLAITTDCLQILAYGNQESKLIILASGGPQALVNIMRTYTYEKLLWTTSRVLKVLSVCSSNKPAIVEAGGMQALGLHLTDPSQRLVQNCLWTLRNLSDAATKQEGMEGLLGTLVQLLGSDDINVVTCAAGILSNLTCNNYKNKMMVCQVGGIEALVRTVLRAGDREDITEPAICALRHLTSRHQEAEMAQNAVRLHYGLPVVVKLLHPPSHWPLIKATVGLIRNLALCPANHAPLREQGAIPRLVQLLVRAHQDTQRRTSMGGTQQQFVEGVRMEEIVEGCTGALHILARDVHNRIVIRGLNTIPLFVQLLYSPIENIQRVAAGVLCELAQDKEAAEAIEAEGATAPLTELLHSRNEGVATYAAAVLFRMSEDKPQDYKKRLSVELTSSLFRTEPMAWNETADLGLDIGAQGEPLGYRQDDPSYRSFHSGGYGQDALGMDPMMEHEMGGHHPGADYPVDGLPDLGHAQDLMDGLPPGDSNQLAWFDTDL

[3] = target: T3, beta-catenin in DLD1 TCF/LEF luciferase reporter cells (UniProt P35222 1-781); assay: cell-based or functional assay
T3 sequence (looked up): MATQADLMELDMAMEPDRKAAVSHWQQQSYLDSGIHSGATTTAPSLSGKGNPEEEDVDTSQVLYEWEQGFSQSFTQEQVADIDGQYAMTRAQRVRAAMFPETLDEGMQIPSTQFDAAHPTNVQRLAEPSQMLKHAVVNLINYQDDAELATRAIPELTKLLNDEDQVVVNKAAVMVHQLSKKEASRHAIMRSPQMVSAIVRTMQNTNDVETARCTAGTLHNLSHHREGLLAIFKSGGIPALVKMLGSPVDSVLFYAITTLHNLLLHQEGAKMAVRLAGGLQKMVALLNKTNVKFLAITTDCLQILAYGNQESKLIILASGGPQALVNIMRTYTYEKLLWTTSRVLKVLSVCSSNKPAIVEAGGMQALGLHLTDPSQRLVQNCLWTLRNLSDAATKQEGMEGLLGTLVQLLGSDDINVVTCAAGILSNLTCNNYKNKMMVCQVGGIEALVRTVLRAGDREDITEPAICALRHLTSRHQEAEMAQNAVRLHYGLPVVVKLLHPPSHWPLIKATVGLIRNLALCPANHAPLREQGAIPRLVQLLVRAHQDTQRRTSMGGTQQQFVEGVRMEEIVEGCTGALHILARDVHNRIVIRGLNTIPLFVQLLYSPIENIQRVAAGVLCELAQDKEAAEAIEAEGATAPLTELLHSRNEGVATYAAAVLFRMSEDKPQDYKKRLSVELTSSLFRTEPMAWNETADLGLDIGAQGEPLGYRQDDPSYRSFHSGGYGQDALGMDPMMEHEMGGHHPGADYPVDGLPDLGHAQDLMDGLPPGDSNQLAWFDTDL

B-cat-Halo [4] = target: T4, B-cat-Halo (UniProt P35222 1-781); assay: cell-based or functional assay; remark: listed apart in the source
T4 sequence (looked up): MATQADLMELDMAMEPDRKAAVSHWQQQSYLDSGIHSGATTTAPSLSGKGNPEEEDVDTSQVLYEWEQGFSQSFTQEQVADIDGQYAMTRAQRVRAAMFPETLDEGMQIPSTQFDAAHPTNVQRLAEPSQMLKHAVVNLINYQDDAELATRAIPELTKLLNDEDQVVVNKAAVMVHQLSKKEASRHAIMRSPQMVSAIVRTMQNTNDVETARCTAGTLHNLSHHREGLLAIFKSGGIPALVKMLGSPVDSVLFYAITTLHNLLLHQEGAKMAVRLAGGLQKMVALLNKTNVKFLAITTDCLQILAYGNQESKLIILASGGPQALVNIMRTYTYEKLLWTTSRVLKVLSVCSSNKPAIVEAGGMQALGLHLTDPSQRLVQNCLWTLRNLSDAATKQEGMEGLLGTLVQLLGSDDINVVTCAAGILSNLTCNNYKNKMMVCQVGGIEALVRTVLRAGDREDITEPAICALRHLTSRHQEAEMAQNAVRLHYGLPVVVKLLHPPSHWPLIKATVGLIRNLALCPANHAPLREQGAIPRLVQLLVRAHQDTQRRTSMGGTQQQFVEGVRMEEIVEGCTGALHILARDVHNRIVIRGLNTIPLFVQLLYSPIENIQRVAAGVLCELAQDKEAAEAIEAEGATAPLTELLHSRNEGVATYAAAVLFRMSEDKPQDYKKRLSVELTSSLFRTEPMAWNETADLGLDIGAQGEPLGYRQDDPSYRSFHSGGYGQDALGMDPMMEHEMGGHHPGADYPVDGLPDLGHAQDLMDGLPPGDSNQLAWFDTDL

B1: I-54: Ac-PL3-Asp-Ala-B5-Asp-Asp-Ala-Ala-Phe-Val-SeN-Phe-Trp-Gln-NH2 (stapled peptide) (peptide)
peptide: Ac-[αAllylPro]DA[B5(4)]DDAAFV[SeN]FWQ-NH2
modifications: staple 1-4, 4-11; not fully specified; printed as Ac-PL3-Asp-Ala-B5-Asp-Asp-Ala-Ala-Phe-Val-SeN-Phe-Trp-Gln-NH2
notes: Same description as I-53
- IC50 [1]: 3.19 µM

B2: I-52: Ac-PL3-Asp-Ala-B5-Asp-Asp-Ala-Ala-Phe-Val-S8-Phe-Trp-Gln-NH2 (stapled peptide) (peptide)
peptide: Ac-[αAllylPro]DA[B5(21)]DDAAFV[S8]FWQ-NH2
modifications: staple 1-4, 4-11
notes: Tested as stapled peptide composition
- IC50 [1]: 3.2 µM

B3: I-999 (peptide)
peptide: Ac-[αAllylPro]D[tBuAla][B5(3)]D[TfeGA]AAFS[S8][Phe(2-Cl)][Bta][hSer]-NH2
modifications: staple 1-4, 4-11; also: later-eluting HPLC isomer
- NanoBRET Abs IC50 (B-cat-Halo [2]): 26.3 µM
- DLD1 4% Abs IC50 [3]: 5.6 µM

B4: I-988 (peptide)
peptide: Ac-[αAllylPro]D[tBuAla][B5(3)]D[TfeGA]AAFF[PyrS2″]F[Bta]Q-NH2
modifications: staple 1-4, 4-11
- NanoBRET Abs IC50 (B-cat-Halo [4]): 13.9 µM

Reference: US20240116985A1 (published 2024)
